Measurements: patent US20170035894A1, “DRUG DELIVERY CONJUGATES FOR TREATING RESISTANT CANCER AND FOR USE IN COMBINATION THERAPY” (ENDOCYTE, INC., priority 2014, published 2017)
Entries after “also recorded” stand apart in the source; their conditions may differ. Marks after values point to notes of the source that are not given here.

Assays:
A549 = assay: In vitro activity against cancer cell lines, 3H-thymidine incorporation; assay type: cell-based, human; settings: FR expression −; evaluated from 0.1-100 nM
Experimental: (§1) METHOD. In vitro activity against various cancer cell lines. IC50 values were generated for various cell lines. Cells were heavily seeded in 24-well Falcon plates and allowed to form nearly confluent monolayers overnight. Thirty minutes prior to the addition of the test compound, spent medium was aspirated from all wells and replaced with fresh folate-deficient RPMI medium (FFRPMI). A subset of wells were designated to receive media containing 100 μM folic acid. The cells in the designated wells were used to determine the targeting specificity. Without being bound by theory it is believed herein that the cytotoxic activity produced by test compounds in the presence of excess folic acid, i.e. where there is competition for FR binding, corresponds to the portion of the total activity that is unrelated to FR-specific delivery. Following one rinse with 1 mL of fresh FFRPMI containing 10% heat-inactivated fetal calf serum, each well received 1 mL of medium containing increasing concentrations of test compound (4 wells per sample) in the presence or absence of 100 μM free folic acid as indicated. Treated cells were pulsed for 2 h at 37° C., rinsed 4 times with 0.5 mL of media, and then chased in 1 mL of fresh medium up to 70 h. Spent medium was aspirated from all wells and replaced with fresh medium containing 5 μCi/mL ^3H-thymidine. Following a further 2 h 37° C. incubation, cells were washed 3 times with 0.5 mL of PBS and then treated with 0.5 mL of ice-cold 5% trichloroacetic acid per well. After 15 min, the trichloroacetic acid was aspirated and the cell material solubilized by the addition of 0.5 mL of 0.25 N sodium hydroxide for 15 min. A 450 μL aliquot of each solubilized sample was transferred to a scintillation vial containing 3 mL of Ecolume scintillation cocktail and then counted in a liquid scintillation counter. Final results are expressed as the percentage of ^3H-thymidine incorporation relative to untreated controls.

AN3CA = assay: as above; assay type: cell-based, human; settings: FR expression −; evaluated from 0.1-100 nM
Experimental: as §1

H23 = assay: as above; assay type: cell-based, human; settings: FR expression −; evaluated from 0.1-100 nM
Experimental: as §1

HepG2 = assay: as above; assay type: cell-based, human; settings: FR expression −; evaluated from 0.1-100 nM
Experimental: as §1

IGROV1 = assay: as above; assay type: cell-based, human
Experimental: as §1

LNCaP = assay: as above; assay type: cell-based, human; settings: FR expression −
Experimental: as §1

MDA-MB-231 = assay: as above; assay type: cell-based, human
Experimental: as §1

NCl/ADR-RES-Cl2 = assay: as above; assay type: cell-based, human
Experimental: as §1

KB-DR150 tumors = assay: Vinca resistant KB-DR150 tumor model; assay type: in vivo, immunodeficient (XID) nu/nu mice
ST040 tumors = assay: Endometrial PDX tumor model; assay type: in vivo, Balb/c nu/nu mice; settings: combined with Paclitaxel 15 mg/kg
Experimental: Female Balb/c nu/nu mice were fed ad libitum with folate-deficient chow (Harlan diet #TD01013) for the duration of the experiment. Primary human Endometrial model ST040, TNBC models 5T502 and ST738 and Ovarian model ST024 fragments (2-4 mm in diameter) were inoculated subcutaneously at the right flank of each mouse. Mice were randomized into 6 experimental groups of 5 or 3 mice each and test articles were injected through the lateral tail vein under sterile conditions in a volume of 200 μL of phosphate-buffered saline (PBS).
Growth of each s.c. tumor was followed by measuring the tumor two times per week until a volume of 1200 mm^3 was reached. Tumors were measured in two perpendicular directions using Vernier calipers, and their volumes were calculated as 0.5×L×W^2, where L=measurement of longest axis in mm and W=measurement of axis perpendicular to L in mm.

[1] = Maximum tolerated dose (MTD); assay type: in vivo, female Sprague-Dawley rats
Experimental: Maximum tolerated dose (MTD). […] Test compounds were administered by i.v., BIW, 2 wks in female Sprague-Dawley rats. […] Histopathologic changes were not observed with doses of EC1456 at or below the MTD.

[2] = Toxicity as measured by weight loss / gross animal toxicity in tumor-bearing mice; settings: for Toxicity Avg. Weight Loss / Toxicity Deaths (%): TIW
Experimental: METHOD. Toxicity as Measured by Weight Loss. The percentage weight change of the test animals was determined on selected days post-tumor inoculation (PTI), and during dosing. The results were graphed.
Evaluation. Tumor size was monitored and body weight measured 3 times/week. Attention was given to gross animal morphology and behavior. Euthanasia was performed if the mice lost >20% of weight or when the tumors reached a size of 1500 mm3. Euthanasia was also performed at the researcher's discretion if mice lost a lot of weight in a short duration or when mice were approaching moribund conditions. Blood samples were collected by cardiac puncture from all viable animals from selected cohorts. Heart, lungs, liver, spleen, kidney, intestines, bone, brain and muscle were obtained immediately after euthanasia. The tissues were removed and stored in 10% neutral-buffered formalin.

[3] = EC1456 1.5 μmol/kg two times a week for two weeks
[4] = EC1456 3 μmol/kg once a week for two weeks
[5] = KB tumors, 0.5 μmol/kg, 3 weeks
[6] = KB tumors, 0.67 μmol/kg, 2 weeks
[7] = KB tumors, 1.0 μmol/kg, 2 weeks
[8] = KB tumors, 2.0 μmol/kg, 2 weeks

CCCC(=O)OCN(C(=O)[C@@H](NC(=O)[C@H]1CCCCN1C)C(C)CC)[C@H](C[C@@H](OC(C)=O)c1nc(C(=O)N[C@@H](Cc2ccc(O)cc2)C[C@H](C)C(=O)NNC(=O)OCCSSC[C@@H](NC(=O)[C@H](CCC(=O)NC[C@H](O)[C@@H](O)[C@H](O)[C@H](O)CO)NC(=O)[C@@H](CCC(=O)O)NC(=O)[C@H](CCC(=O)NC[C@H](O)[C@@H](O)[C@H](O)[C@H](O)CO)NC(=O)[C@@H](CCC(=O)O)NC(=O)[C@H](CCC(=O)NC[C@H](O)[C@@H](O)[C@H](O)[C@H](O)CO)NC(=O)CC[C@@H](NC(=O)c2ccc(NCc3cnc4nc(N)[nH]c(=O)c4n3)cc2)C(=O)O)C(=O)O)cs1)C(C)C (stereo in doubt) [EC1456]
Activity (IC50) (A549): Inactive (a) | Activity (IC50) (AN3CA): Inactive | Activity (IC50) (H23): Inactive | Activity (IC50) (HepG2): Inactive | IC50 (IGROV1; FR expression +): 0.72 nM | Competable up to 100 nM (IGROV1; folic acid competition): Yes | IC50 (LNCaP): ~850 nM | IC50 (MDA-MB-231; FR expression +): 0.47 nM | Competable up to 100 nM (MDA-MB-231; folic acid competition): Yes | IC50 (NCl/ADR-RES-Cl2; FR expression ++): 1.4 nM | Competable up to 100 nM (NCl/ADR-RES-Cl2; folic acid competition): Yes | efficacy of co-administration of EC1456 and doxorubicin (KB-DR150 tumors; EC1456 2 μmol/kg TIW×2 + DOXIL 5 mg/kg BIW×2): enhanced technical effect over both monotherapies | efficacy of EC1456 alone compared to doxorubicin (DOXIL) (KB-DR150 tumors; EC1456 2 μmol/kg TIW×2 vs DOXIL 5 mg/kg BIW×2): improved efficacy over doxorubicin | animal exhibiting cure (ST040 tumors; [3]): 1 animal | animals exhibiting PRs (ST040 tumors; [3]): 3 animals | animals exhibiting PR's (ST040 tumors; [4]): 2 animals | animals exhibiting stable disease (ST040 tumors; [4]): 3 animals | Histopathologic changes ([1]; doses at or below the MTD): not observed | MTD at 2 wks ([1]; female, Sprague-Dawley, rat, in vivo, iv, BIW, 2 wks): ≥ 0.51 µmol/kg | improvement of MTD over EC0531 ([1]; i.v., BIW, 2 wks): 65% | whole animal toxicity as determined by animal body weight ([2]; KB tumors in nu/nu mice, 1 μmol/kg TIW, 2 weeks): did not result in any observable whole animal toxicity; also recorded: did not show any evidence of whole animal toxicity | gross animal toxicity ([2]; KB tumors, carboplatin/paclitaxel study, EC1456 alone 1 μmol/kg BIW×2): Gross animal toxicity was not observed | toxicity ([2]; KB tumors, carboplatin/paclitaxel study, carboplatin in combination with EC1456): Mild toxicity | Toxicity Avg. Weight Loss [2, 5]: <5%* | Toxicity Deaths (%) [2, 5]: 0% | Toxicity Avg. Weight Loss [2, 6]: <2% | Toxicity Deaths (%) [2, 6]: 0% | Toxicity Avg. Weight Loss [2, 7]: <1.5% | Toxicity Deaths (%) [2, 7]: 0% | Toxicity Avg. Weight Loss [2, 8]: <3% | Toxicity Deaths (%) [2, 8]: 0% | gross animal toxicity ([2]; KB tumors, EC1456 alone 1 μmol/kg BIW×2): Gross animal toxicity was not observed | gross animal toxicity ([2]; KB tumors, EC1456 alone 1 μmol/kg TIW×5): Gross animal toxicity was not observed | toxicity ([2]; KB tumors, cisplatin 3 mg/kg BIW×3 in combination with EC1456): Mild toxicity | toxicity ([2]; KB tumors, docetaxel 7 mg/kg BIW×3 in combination with EC1456): Mild toxicity | weight loss / host animal toxicity ([2]; KB-CR2000 tumors, EC1456 2 μmol/kg TIW 2 weeks): did not exhibit significant host animal toxicity; also recorded: did not cause any weight loss | gross animal toxicity ([2]; KB-DR150 tumors, EC1456 alone 2 μmol/kg TIW×2): Gross animal toxicity was not observed | toxicity ([2]; KB-DR150 tumors, doxorubicin in combination with EC1456): Mild toxicity | gross animal toxicity ([2]; M109 tumors, EC1456 alone 2 μmol/kg TIW×2): Gross animal toxicity was not observed | toxicity ([2]; M109 tumors, cisplatin in combination with EC1456): Mild toxicity | weight loss / gross whole animal toxicity (% weight change) ([2]; MDA-MB-231 tumors, 2 μmol/kg i.v. TIW 2 weeks): did not cause gross whole animal toxicity; also recorded: not accompanied by significant weight loss | gross animal toxicity ([2]; P-1635 KB tumors, EC1456 alone 1 μmol/kg TIW×2): Gross animal toxicity was not observed | toxicity ([2]; P-1635 KB tumors, carboplatin 50 mg/kg TIW in combination with EC1456): Mild toxicity
